Reference: patent US9890400B2, “Method of production of 2,4-dihydroxybutyric acid” (ADISSEO FRANCE S.A.S., priority 2012, dated 2018)

B1: H39R N43H: M. sedula succinic semialdehyde reductase double mutant H39R N43H, SEQ ID No. 36 (protein, listed as Metallosphaera sedula)
chain: MKAAVLHTYKEPLSIEDVNISQPKAGEVKIKVKATGLCRSDVHVFEGKTPVPPPVVAGHEISGIVEEVGPGVTRVKPGDRVISAFIHPCGKCGNCVAGKENLCETFSQVRLKGVMPDGTSRLSKDGKEIRTFLGGGFAEYAIVGENALTRVPEDMDLEKVAVLGCAGLTGYGAISSSKIEPGDTVAVIGVGGVGLSTIQLLRASGAGRIIAVGTKKWKLDRAMELGATDVVNSKEIDPVKAIKEITGGGPQVVIEAGGNEDTIHMALDSVRIGGKVVLVGLPPATAMIPIRVASIVRGGIEVVGNYGGRPRVDMPKLLELVRQGRYDPSRLVTGRFRLEEINEAVKMLEEGEAIRSLIIP
B2: Ms-SSR: succinic semialdehyde reductase from Metallosphaera sedula, SEQ ID No. 16 (protein, listed as Metallosphaera sedula)
chain: MKAAVLHTYKEPLSIEDVNISQPKAGEVKIKVKATGLCHSDVNVFEGKTPVPPPVVAGHEISGIVEEVGPGVTRVKPGDRVISAFIHPCGKCGNCVAGKENLCETFSQVRLKGVMPDGTSRLSKDGKEIRTFLGGGFAEYAIVGENALTRVPEDMDLEKVAVLGCAGLTGYGAISSSKIEPGDTVAVIGVGGVGLSTIQLLRASGAGRIIAVGTKKWKLDRAMELGATDVVNSKEIDPVKAIKEITGGGPQVVIEAGGNEDTIHMALDSVRIGGKVVLVGLPPATAMIPIRVASIVRGGIEVVGNYGGRPRVDMPKLLELVRQGRYDPSRLVTGRFRLEEINEAVKMLEEGEAIRSLIIP
B3: 4hbdh: 4-hydroxybutyrate dehydrogenase of P. gingivalis, SEQ ID No. 187 (protein, listed as Porphyromonas gingivalis)
chain: MQLFKLKSVTHHFDTFAEFAKEFCLGERDLVITNEFIYEPYMKACQLPCHFVMQEKYGQGEPSDEMMNNILADIRNIQFDRVIGIGGGTVIDISKLFVLKGLNDVLDAFDRKIPLIKEKELIIVPTTCGTGSEVTNISIAEIKSRHTKMGLADDAIVADHAIIIPELLKSLPFHFYACSAIDALIHAIESYVSPKASPYSRLFSEAAWDIILEVFKKIAEHGPEYRFEKLGEMIMASNYAGIAFGNAGVGAVHALSYPLGGNYHVPHGEANYQFFTEVFKVYQKKNPFGYIVELNWKLSKILNCQPEYVYPKLDELLGCLLTKKPLHEYGMKDEEVRGFAESVLKTQQRLLANNYVELTVDEIEGIYRRLY
B4: YqhD: alcohol dehydrogenase of E. coli, SEQ ID No. 185 (protein, listed as Escherichia coli)
chain: MNNFNLHTPTRILFGKGAIAGLREQIPHDARVLITYGGGSVKKTGVLDQVLDALKGMDVLEFGGIEPNPAYETLMNAVKLVREQKVTFLLAVGGGSVLDGTKFIAAAANYPENIDPWHILQTGGKEIKSAIPMGCVLTLPATGSESNAGAVISRKTTGDKQAFHSAHVQPVFAVLDPVYTYTLPPRQVANGVVDAFVHTVEQYVTKPVDAKIQDRFAEGILLTLIEDGPKALKEPENYDVRANVMWAATQALNGLIGAGVPQDWATHMLGHELTAMHGLDHAQTLAIVLPALWNEKRDTKRAKLLQYAERVWNITEGSDDERIDAAIAATRNFFEQLGVPTHLSDYGLDGSSIPALLKKLEEHGMTQLGENHDITLDVSRRIYEAAR
B5: YPR1: methylbutyraldehyde reductase from Saccharomyces cerevisiae, SEQ ID No. 14 (protein, listed as Saccharomyces cerevisiae)
chain: MPATLKNSSATLKLNTGASIPVLGFGTWRSVDNNGYHSVIAALKAGYRHIDAAAIYLNEEEVGRAIKDSGVPREEIFITTKLWGTEQRDPEAALNKSLKRLGLDYVDLYLMHWPVPLKTDRVTDGNVLCIPTLEDGTVDIDTKEWNFIKTWELMQELPKTGKTKAVGVSNFSINNIKELLESPNNKVVPATNQIEIHPLLPQDELIAFCKEKGIVVEAYSPFGSANAPLLKEQAIIDMAKKHGVEPAQLIISWSIQRGYVVLAKSVNPERIVSNFKIFTLPEDDFKTISNLSKVHGTKRVVDMKWGSFPIFQ

Test: Test for malate semialdehyde reductase (DHB dehydrogenase) activity
Format: biochemical
Details: for Activity on malate semialdehyde (cofactor NADH) / Activity on malate semialdehyde (cofactor NADPH): 10 mM malate semialdehyde, 30° C., average of at least two experiments
Description: Test for Malate Semialdehyde Reductase Activity: (L)-Malate semialdehyde+NAD(P)H→(L)-2,4-dihydroxybutyric acid+NAD(P) Reaction scheme:
The assay mixture contained 200 mM Hepes (pH 7.5), 50 mM KCl, 5 mM MgCl2, 0.24 mM NADH or NADPH, and appropriate amounts of purified enzyme or cell extract. Reactions were started by adding 10 mM (L)-malate semialdehyde (malate semialdehyde was prepared freshly for each test, see Example 3). Enzymatic assays were carried out at 30° C. in 96-well flat bottomed microtiter plates in a final volume of 250 μL. The reactions were followed by the characteristic absorption of NAD(P)H at 340 nm (εNADPH=6.22 mM^−1 cm^−1) in a microplate reader (BioRad 680XR).

| Molecule | affinity for malate semialdehyde compared to the wild type enzyme (in words) | Activity on malate semialdehyde (cofactor NADH) | Activity on malate semialdehyde (cofactor NADPH) |
| --- | --- | --- | --- |
| B1 | improved affinity | – | – |
| B2 | – | 4.9 μmol/(min * mg_prot) | 4.9 μmol/(min * mg_prot) |
| B3 | – | 33 μmol/(min * mg_prot) | – |
| B4 | – | – | 1.2 μmol/(min * mg_prot) |
| B5 | – | – | 0.19 μmol/(min * mg_prot) |
